Results as given in the supplement of paper PMC10567573.

B1: SNAP91 (parent)
chain: FATASAAVPVSTSKPSSDLLDLQP

Variants of: B1
Assay: protein stability index of a GFP-peptide fusion (GPS, HEK-293T) (PSI 1-6); higher = more stable
Settings: c terminus: a fixed tail appended
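Further: lentivirally expressed fusions sorted by FACS into six bins by GFP to DsRed ratio, PSI derived from sequencing read proportions per bin multiplied by bin number.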

Variant | protein stability index
FATASAAVPVITSKPSSDLLDLQP | 3.15
FATASAAVPVTTSKPSSDLLDLQP | 3.71
FATASAAVPVETSKPSSDLLDLQP | 4.2
FATASAAVPVNTSKPSSDLLDLQP | 3.76
FATASAAVPVRTSKPSSDLLDLQP | 3.77
FATASAAVPVQTSKPSSDLLDLQP | 3.24
FATASAAVPVLTSKPSSDLLDLQP | 3.03
FATASAAVPVDTSKPSSDLLDLQP | 4.42
FATASAAVPVATSKPSSDLLDLQP | 3.44
FATASAAVPVMTSKPSSDLLDLQP | 3.5
FATASAAVPVKTSKPSSDLLDLQP | 3.84
FATASAAVPVCTSKPSSDLLDLQP | 3.15
FATASAAVPVHTSKPSSDLLDLQP | 3.01
FATASAAVPVYTSKPSSDLLDLQP | 2.17
FATASAAVPVVTSKPSSDLLDLQP | 3.62
FATASAAVPVFTSKPSSDLLDLQP | 1.7
FATASAAVPVPTSKPSSDLLDLQP | 2.88
FATASAAVPVGTSKPSSDLLDLQP | 3.73
FATASAAVPVSTSKPSSPLLDLQP | 3.3
FATASAAVPVSTSKPSSILLDLQP | 3.37
FATASAAVPVSTSKPSSSLLDLQP | 2.99
FATASAAVPVSTSKPSSWLLDLQP | 2.13
FATASAAVPVSTSKPSSVLLDLQP | 3.17
FATASAAVPVSTSKPSSQLLDLQP | 3.19

Variant | protein stability index
FATASAAVPVSTSKPSSMLLDLQP | 2.87
FATASAAVPVSTSKPSSNLLDLQP | 3.14
FATASAAVPVSTSKPSSRLLDLQP | 2.84
FATASAAVPVSTSKPSSCLLDLQP | 3.42
FATASAAVPVSTSKPSSLLLDLQP | 2.77
FATASAAVPVSTSKPSSKLLDLQP | 2.98
FATASAAVPVSTSKPSSFLLDLQP | 2.23
FATASAAVPVSTSKPSSHLLDLQP | 3.04
FATASAAVPVSTSKPSSTLLDLQP | 3.17
FATASAAVPVSTSKPSSYLLDLQP | 3.37
FATASAAVPVSTSKPSSALLDLQP | 3.44
FATASAAVPVSTSKPSSELLDLQP | 3.98
FATASAAVPVSTSKPSSGLLDLQP | 3.42
FATASAAVPVSTSKPSSDLADLQP | 4
FATASAAVPVSTSKPSSDLCDLQP | 3.93
FATASAAVPVSTSKPSSDLEDLQP | 4.34
FATASAAVPVSTSKPSSDLHDLQP | 3.9
FATASAAVPVSTSKPSSDLFDLQP | 3.15
FATASAAVPVSTSKPSSDLDDLQP | 4.48
FATASAAVPVSTSKPSSDLGDLQP | 4.12
FATASAAVPVSTSKPSSDPLDLQP | 4.39
FATASAAVPVSTSKPSSDNLDLQP | 4.32
FATASAAVPVSTSKPSSDQLDLQP | 3.96
FATASAAVPVSTSKPSSDVLDLQP | 3.95

Variant | protein stability index
FATASAAVPVSTSKPSSDTLDLQP | 4.22
FATASAAVPVSTSKPSSDSLDLQP | 4.35
FATASAAVPVSTSKPSSDDLDLQP | 4.64
FATASAAVPVSTSKPSSDFLDLQP | 3.7
FATASAAVPVSTSKPSSDALDLQP | 4.02
FATASAAVPVSTSKPSSDMLDLQP | 3.81
FATASAAVPVSTSKPSSDKLDLQP | 3.79
FATASAAVPVSTSKPSSDWLDLQP | 2.5
FATASAAVPVSTSKPSSDGLDLQP | 4.12
FATASAAVPVSTSKPSSDYLDLQP | 3.56
FATASAAVPVSTSKPSSDILDLQP | 3.95
FATASAAVPVSTSKPSSDHLDLQP | 4.26
FATASAAVPVSTSKPSSDELDLQP | 4.59
FATASAAVPVSTSKPSSDCLDLQP | 4.06
FATASAAVPVSTSKPSSDRLDLQP | 3.98
FATASAAVPVSTSHPSSDLLDLQP | 3.58
FATASAAVPVSTSCPSSDLLDLQP | 3.61
FATASAAVPVSTSYPSSDLLDLQP | 3.21
FATASAAVPVSTSDPSSDLLDLQP | 4.36
FATASAAVPVSTSVPSSDLLDLQP | 4.05
FATASAAVPVSTSAPSSDLLDLQP | 4.16
FATASAAVPVSTSQPSSDLLDLQP | 4.61
FATASAAVPVSTSLPSSDLLDLQP | 3.64
FATASAAVPVSTSGPSSDLLDLQP | 3.97

Variant | protein stability index
FATASAAVPVSTSNPSSDLLDLQP | 3.89
FATASAAVPVSTSFPSSDLLDLQP | 2.6
FATASAAVPVSTSEPSSDLLDLQP | 4.45
FATASAAVPVSTSWPSSDLLDLQP | 2.03
FATASAAVPVSTSSPSSDLLDLQP | 4.01
FATASAAVPVSTSIPSSDLLDLQP | 3.5
FATASAAVPVSTSRPSSDLLDLQP | 3.87
FATASAAVPVSTSPPSSDLLDLQP | 4.15
FATASAAVPVSTSTPSSDLLDLQP | 3.97
FATASAAVPVSTSMPSSDLLDLQP | 3.48
FATASAAVPVSTSKESSDLLDLQP | 4.89
FATASAAVPVSTSKYSSDLLDLQP | 2.99
FATASAAVPVSTSKHSSDLLDLQP | 3.96
FATASAAVPVSTSKISSDLLDLQP | 3.52
FATASAAVPVSTSKRSSDLLDLQP | 2.9
FATASAAVPVSTSKFSSDLLDLQP | 2.54
FATASAAVPVSTSKWSSDLLDLQP | 2.19
FATASAAVPVSTSKDSSDLLDLQP | 4.17
FATASAAVPVSTSKSSSDLLDLQP | 3.73
FATASAAVPVSTSKVSSDLLDLQP | 3.14
FATASAAVPVSTSKKSSDLLDLQP | 3.57
FATASAAVPVSTSKQSSDLLDLQP | 3.44
FATASAAVPVSTSKASSDLLDLQP | 3.28
FATASAAVPVSTSKNSSDLLDLQP | 3.85

Variant | protein stability index
FATASAAVPVSTSKTSSDLLDLQP | 3.74
FATASAAVPVSTSKCSSDLLDLQP | 3.15
FATASAAVPVSTSKLSSDLLDLQP | 2.72
FATASAAVPVSTSKMSSDLLDLQP | 3.17
FATASAAVPVSTSKGSSDLLDLQP | 3.97
FATASAAVPVSESKPSSDLLDLQP | 4.44
FATASAAVPVSLSKPSSDLLDLQP | 3.74
FATASAAVPVSDSKPSSDLLDLQP | 4.04
FATASAAVPVSPSKPSSDLLDLQP | 2.1
FATASAAVPVSHSKPSSDLLDLQP | 4.3
FATASAAVPVSASKPSSDLLDLQP | 4.36
FATASAAVPVSRSKPSSDLLDLQP | 3.13
FATASAAVPVSVSKPSSDLLDLQP | 3.73
FATASAAVPVSSSKPSSDLLDLQP | 4.49
FATASAAVPVSMSKPSSDLLDLQP | 2.78
FATASAAVPVSKSKPSSDLLDLQP | 3.61
FATASAAVPVSNSKPSSDLLDLQP | 3.7
FATASAAVPVSWSKPSSDLLDLQP | 2.61
FATASAAVPVSCSKPSSDLLDLQP | 2.58
FATASAAVPVSFSKPSSDLLDLQP | 3.07
FATASAAVPVSISKPSSDLLDLQP | 3.51
FATASAAVPVSYSKPSSDLLDLQP | 3.28
FATASAAVPVSGSKPSSDLLDLQP | 3.91
FATASAAVPVSQSKPSSDLLDLQP | 3.97

Variant | protein stability index
FATASAAVPRSTSKPSSDLLDLQP | 2.85
FATASAAVPNSTSKPSSDLLDLQP | 3.94
FATASAAVPSSTSKPSSDLLDLQP | 3.97
FATASAAVPMSTSKPSSDLLDLQP | 3.55
FATASAAVPPSTSKPSSDLLDLQP | 4.36
FATASAAVPKSTSKPSSDLLDLQP | 4.04
FATASAAVPQSTSKPSSDLLDLQP | 4.61
FATASAAVPTSTSKPSSDLLDLQP | 4.17
FATASAAVPISTSKPSSDLLDLQP | 3.39
FATASAAVPLSTSKPSSDLLDLQP | 3.63
FATASAAVPYSTSKPSSDLLDLQP | 4.29
FATASAAVPVSTSKPNSDLLDLQP | 3.81
FATASAAVPVSTSKPYSDLLDLQP | 3.08
FATASAAVPVSTSKPHSDLLDLQP | 3.71
FATASAAVPVSTSKPFSDLLDLQP | 2.99
FATASAAVPVSTSKPMSDLLDLQP | 3.43
FATASAAVPVSTSKPLSDLLDLQP | 2.83
FATASAAVPVSTSKPKSDLLDLQP | 3.43
FATASAAVPVSTSKPVSDLLDLQP | 3.6
FATASAAVPVSTSKPCSDLLDLQP | 3.36
FATASAAVPVSTSKPDSDLLDLQP | 4.24
FATASAAVPVSTSKPTSDLLDLQP | 3.03
FATASAAVPVSTSKPPSDLLDLQP | 3.5
FATASAAVPVSTSKPASDLLDLQP | 4.02

Variant | protein stability index
FATASAAVPVSTSKPWSDLLDLQP | 1.54
FATASAAVPVSTSKPGSDLLDLQP | 3.57
FATASAAVPVSTSKPISDLLDLQP | 3.24
FATASAAVPVSTSKPESDLLDLQP | 3.87
FATASAAVPVSTSKPRSDLLDLQP | 3.3
FATASAAVPVSTSKPQSDLLDLQP | 3.93
FATASAAVPVSTSKPSCDLLDLQP | 3.41
FATASAAVPVSTSKPSTDLLDLQP | 4.21
FATASAAVPVSTSKPSYDLLDLQP | 3.2
FATASAAVPVSTSKPSFDLLDLQP | 2.51
FATASAAVPVSTSKPSKDLLDLQP | 3.47
FATASAAVPVSTSKPSDDLLDLQP | 4.22
FATASAAVPVSTSKPSPDLLDLQP | 3.79
FATASAAVPVSTSKPSADLLDLQP | 3.68
FATASAAVPVSTSKPSIDLLDLQP | 2.88
FATASAAVPVSTSKPSRDLLDLQP | 3.25
FATASAAVPVSTSKPSWDLLDLQP | 3.31
FATASAAVPVSTSKPSMDLLDLQP | 3.56
FATASAAVPVSTSKPSNDLLDLQP | 3.85
FATASAAVPVSTSKPSEDLLDLQP | 4.13
FATASAAVPVSTSKPSHDLLDLQP | 3.66
FATASAAVPVSTSKPSLDLLDLQP | 3.35
FATASAAVPVSTSKPSQDLLDLQP | 3.72
FATASAAVPVSTSKPSVDLLDLQP | 3.47

Variant | protein stability index
FATASAAVPVSTSKPSGDLLDLQP | 3.68
FATASAAVPVSTDKPSSDLLDLQP | 3.62
FATASAAVPVSTCKPSSDLLDLQP | 2.57
FATASAAVPVSTIKPSSDLLDLQP | 3.42
FATASAAVPVSTTKPSSDLLDLQP | 3.38
FATASAAVPVSTRKPSSDLLDLQP | 3.94
FATASAAVPVSTEKPSSDLLDLQP | 3.67
FATASAAVPVSTFKPSSDLLDLQP | 3.22
FATASAAVPVSTWKPSSDLLDLQP | 2.67
FATASAAVPVSTAKPSSDLLDLQP | 3.82
FATASAAVPVSTGKPSSDLLDLQP | 3.95
FATASAAVPVSTYKPSSDLLDLQP | 3.36
FATASAAVPVSTPKPSSDLLDLQP | 3.83
FATASAAVPVSTQKPSSDLLDLQP | 3.8
FATASAAVPVSTHKPSSDLLDLQP | 3.66
FATASAAVPVSTLKPSSDLLDLQP | 3.09
FATASAAVPVSTKKPSSDLLDLQP | 3.72
FATASAAVPVSTNKPSSDLLDLQP | 3.66
FATASAAVPVSTVKPSSDLLDLQP | 3.52
FATASAAVPVSTMKPSSDLLDLQP | 3.67
